Protein stability index data for 94 variants are collected here from the supplement of paper PMC10567573.

B1: MYBL2 (parent)
chain: FPNRTDQQCQYRWLRVLNPDLVKG
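Note: lentivirally expressed fusions sorted by FACS into six bins by GFP to DsRed ratio, PSI derived from sequencing read proportions per bin multiplied by bin number.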

The variants in this data set derive from B1. The experiment in a line: protein stability index of a GFP-peptide fusion (GPS, HEK-293T) (PSI 1-6); higher = more stable. The note with it: c terminus: a fixed tail appended.
Consider FPNRTDQQCQYRWLRVLNPDLVRG [K23R], for which the protein stability index was 2.21. FPNRTDQQCQYRWLRVLNPDLVMG [K23M]: the protein stability index worked out at 1.5. In the case of FPNRTDQQCQYRWLRVLNPDLVFG [K23F], the protein stability index was determined as 2.47. Take FPNRTDQQCQYCWLRVLNPDLVKG [R12C]: the protein stability index came to 2.55. Turning to FPNRTDQQCQYHWLRVLNPDLVKG [R12H], the protein stability index was determined as 3.76.

Take FPNRTDQQCQYKWLRVLNPDLVKG [R12K]: the protein stability index is 2.25.

As for FPNRTDQQCQYQWLRVLNPDLVKG [R12Q], the protein stability index stood at 2.21.

FPNRTDQQNQYRWLRVLNPDLVKG [C9N]: the protein stability index was found to be 2.18. With FPNRTDQQDQYRWLRVLNPDLVKG [C9D], the protein stability index stood at 2.19. For the variant FYNRTDQQCQYRWLRVLNPDLVKG [P2Y], the protein stability index stood at 2.2. Consider FANRTDQQCQYRWLRVLNPDLVKG [P2A], for which the protein stability index came out at 2.17. As for FNNRTDQQCQYRWLRVLNPDLVKG [P2N], the protein stability index turned out to be 2.06. As for FINRTDQQCQYRWLRVLNPDLVKG [P2I], the figure is 1.13; as for FCNRTDQQCQYRWLRVLNPDLVKG [P2C], 1.84; as for FRNRTDQQCQYRWLRVLNPDLVKG [P2R], 2.49.

Turning to FQNRTDQQCQYRWLRVLNPDLVKG [P2Q], the protein stability index is 1.93.

Take FLNRTDQQCQYRWLRVLNPDLVKG [P2L]: the protein stability index was 2.62.

Regarding FPNRTDQQCQYRWLRVLNTDLVKG [P19T], the protein stability index was found to be 1.67. Regarding FPNRTDQQCQYRWLRVLNVDLVKG [P19V], the protein stability index came to 1.94. With FPNRTDQQCQYRWLRVLNDDLVKG [P19D], the protein stability index turned out to be 1.97. As for FPNRTDQQCQYRWLRVLNWDLVKG [P19W], the figure is 1.63. As for FPNRTDQQCQYRWLRVLNGDLVKG [P19G], the protein stability index came to 2.26. As for FPNRTDQQCQYRWLRVLNPDLLKG [V22L], the figure is 2.21; as for FPNRTDQQCQYRWLRVLNPDLHKG [V22H], 2.74; as for FPNRTDQQCQYRWLRVLNPDLIKG [V22I], 2.04. As for FPNRTDQQCQYRWLRVLNPDLGKG [V22G], the figure is 2; as for FPNRTDQQCQYRWLRVLNPDLEKG [V22E], 1.55.

Take FPQRTDQQCQYRWLRVLNPDLVKG [N3Q]: the protein stability index was 2.04. As for FPKRTDQQCQYRWLRVLNPDLVKG [N3K], the figure is 1.77. On to FPTRTDQQCQYRWLRVLNPDLVKG [N3T], for which the protein stability index came to 1.91. In the case of FPCRTDQQCQYRWLRVLNPDLVKG [N3C], the protein stability index was found to be 1.56. As to FPNRTDQQCQYRWLRVLNPALVKG [D20A], the protein stability index is 2.13. Turning to FPNRTDQQCQYRWLRVLNPELVKG [D20E], the protein stability index was found to be 2.03.

Consider FPNRTDQQCQYRWLRVLNPRLVKG [D20R], for which the protein stability index came out at 2.22.

In the case of FPNRTDQQCQYRWLRVLNPMLVKG [D20M], the protein stability index worked out at 1.89. As to FPNRTDQQCQYRWLRVLNPCLVKG [D20C], the protein stability index worked out at 1.83. As for FPNRTDQQCQYRWLRVLNPNLVKG [D20N], the figure is 2.43; as for FPNRTDQQCQYRWLRVVNPDLVKG [L17V], 2.04. With FPNRTDQQCQYRWLRVHNPDLVKG [L17H], the protein stability index was determined as 1.6. On to FPNRTDQQCQYRWLRVGNPDLVKG [L17G], for which the protein stability index was 2.45.

Take FPNRTDQQCQYRWLRVQNPDLVKG [L17Q]: the protein stability index worked out at 2.45.

Take FPNRTDQQCQYRWYRVLNPDLVKG [L14Y]: the protein stability index stood at 1.83.

FPNRTDQQCQYRWRRVLNPDLVKG [L14R]: the protein stability index amounted to 2.44.

On to FPNRTDQQCQYRWHRVLNPDLVKG [L14H], for which the protein stability index came to 2.67. As for FPNRTDQQCQYRWKRVLNPDLVKG [L14K], the figure is 2.88.

With FPNRTDQQCQYRWARVLNPDLVKG [L14A], the protein stability index is 3.17. For FPNRTDQQCQYRWLRMLNPDLVKG [V16M], the protein stability index is 1.78. FPNRTDQQCQYRWLRNLNPDLVKG [V16N]: the protein stability index worked out at 2.05. With FPNRTDQQCQYRWLRALNPDLVKG [V16A], the protein stability index amounted to 1.87. In the case of FPNRTDQQCQYRWLRWLNPDLVKG [V16W], the protein stability index is 2.57. As to FPNRTDQQCQYRWLRKLNPDLVKG [V16K], the protein stability index was determined as 2.02. Turning to FPNRTDQQCQYRWLNVLNPDLVKG [R15N], the protein stability index worked out at 1.52.

On to FPNRTDQQCQYRWLHVLNPDLVKG [R15H], for which the protein stability index stood at 2.31. For the variant FPNRTDQQCQYRWLMVLNPDLVKG [R15M], the protein stability index was 1. Regarding FPNRTDQRCQYRWLRVLNPDLVKG [Q8R], the protein stability index turned out to be 1.96. Regarding FPNRTDQLCQYRWLRVLNPDLVKG [Q8L], the protein stability index was determined as 1.68. As for FPNRTDQDCQYRWLRVLNPDLVKG [Q8D], the figure is 2.09; as for FPNRTNQQCQYRWLRVLNPDLVKG [D6N], 1.8; as for FPNRTAQQCQYRWLRVLNPDLVKG [D6A], 1.7.

As to FPNRTVQQCQYRWLRVLNPDLVKG [D6V], the protein stability index worked out at 1.98. As for FPNRTRQQCQYRWLRVLNPDLVKG [D6R], the figure is 1.41. For the variant FPNRTTQQCQYRWLRVLNPDLVKG [D6T], the protein stability index came out at 1.84. Regarding FPNRTDIQCQYRWLRVLNPDLVKG [Q7I], the protein stability index turned out to be 2.07.

On to FPNRTDKQCQYRWLRVLNPDLVKG [Q7K], for which the protein stability index came out at 1.8.

Turning to FPNRTDWQCQYRWLRVLNPDLVKG [Q7W], the protein stability index worked out at 2.29.

For the variant FPNRTDVQCQYRWLRVLNPDLVKG [Q7V], the protein stability index came out at 1.85. In the case of FPNRTDAQCQYRWLRVLNPDLVKG [Q7A], the protein stability index amounted to 2.53. For FPNRTDQQCTYRWLRVLNPDLVKG [Q10T], the protein stability index was determined as 1.93.

Take FPNRTDQQCPYRWLRVLNPDLVKG [Q10P]: the protein stability index stood at 2.18. Take FPNRTDQQCFYRWLRVLNPDLVKG [Q10F]: the protein stability index was found to be 1.75. Turning to FPNRTDQQCAYRWLRVLNPDLVKG [Q10A], the protein stability index was found to be 1.45. On to FPNRTDQQCQYRLLRVLNPDLVKG [W13L], for which the protein stability index was determined as 2.08. Take FPNRTDQQCQYRKLRVLNPDLVKG [W13K]: the protein stability index was determined as 3.05.

Consider FPNRTDQQCQYRQLRVLNPDLVKG [W13Q], for which the protein stability index was 3.1.

In the case of FPNRTDQQCQYRHLRVLNPDLVKG [W13H], the protein stability index came to 2.56. As to FPNRTDQQCQYRVLRVLNPDLVKG [W13V], the protein stability index came to 2.39.

Take FPNRTDQQCQYRWLRVLNPDLVKV [G24V]: the protein stability index was 1.71.

Consider FPNRTDQQCQYRWLRVLNPDLVKY [G24Y], for which the protein stability index is 1.85. FPNRTDQQCQYRWLRVLNPDLVKK [G24K]: the protein stability index worked out at 2.01. Regarding FPNRTDQQCQYRWLRVLNPDLVKE [G24E], the protein stability index was 2.02. In the case of FPNRTDQQCQYRWLRVLNPDLVKD [G24D], the protein stability index worked out at 1.94.

As for FPNRTDQQCQYRWLRVLNPDLVKC [G24C], the protein stability index is 1.89. Consider FPNRTDQQCQYRWLRVLNPDLVKQ [G24Q], for which the protein stability index was 1.91. As to FPNRTDQQCQYRWLRVLAPDLVKG [N18A], the protein stability index was 2.17. As to FPNRTDQQCQYRWLRVLEPDLVKG [N18E], the protein stability index came to 2.16. As for FPNRTDQQCQYRWLRVLRPDLVKG [N18R], the figure is 3.02; as for FPNRTDQQCQYRWLRVLCPDLVKG [N18C], 2.8.

FPNRTDQQCQYRWLRVLNPDEVKG [L21E]: the protein stability index was determined as 2.43. As for FPNRTDQQCQYRWLRVLNPDYVKG [L21Y], the protein stability index was determined as 1.98. Consider FPNRQDQQCQYRWLRVLNPDLVKG [T5Q], for which the protein stability index amounted to 1.76. Turning to FPNRSDQQCQYRWLRVLNPDLVKG [T5S], the protein stability index was 1.86. For FPNRNDQQCQYRWLRVLNPDLVKG [T5N], the protein stability index worked out at 2.01. FPNRWDQQCQYRWLRVLNPDLVKG [T5W]: the protein stability index is 2. For FPNRCDQQCQYRWLRVLNPDLVKG [T5C], the protein stability index was 1.57.
